Test [1] concerns the target recombinant truncated CrrB (135-353 amino acids) (Klebsiella pneumoniae). Put plainly: not stated; purified recombinant His-tagged protein after Ni-NTA; how dimer and monomer were told apart is not stated in the text (Supplementary Figure S1).
Test [2] concerns the target recombinant truncated CrrB (135-353 amino acids) P151L mutant (Klebsiella pneumoniae). The test is described as above.

The term stoichiometry N denotes the number of molecules, sites or subunits per partner or assembly. “recombinant truncated CrrB (135-353 amino acids) (domain or fragment)”: the stoichiometry N in test [1] was determined as 2. For “recombinant truncated CrrB (135-353 amino acids) P151L mutant (domain or fragment)”, the stoichiometry N in test [2] is 2.

Source of the values: article PMC9485624.
